The record followed here is article PMC8818087 (Nature cancer, 2021).

For one assay, the target named is T1, TC-SND1 (16-339aa) (UniProt Q7KZF4 16-339, FlAsH-EDT2 labelling reagent on the tetracysteine tag).
T1 sequence: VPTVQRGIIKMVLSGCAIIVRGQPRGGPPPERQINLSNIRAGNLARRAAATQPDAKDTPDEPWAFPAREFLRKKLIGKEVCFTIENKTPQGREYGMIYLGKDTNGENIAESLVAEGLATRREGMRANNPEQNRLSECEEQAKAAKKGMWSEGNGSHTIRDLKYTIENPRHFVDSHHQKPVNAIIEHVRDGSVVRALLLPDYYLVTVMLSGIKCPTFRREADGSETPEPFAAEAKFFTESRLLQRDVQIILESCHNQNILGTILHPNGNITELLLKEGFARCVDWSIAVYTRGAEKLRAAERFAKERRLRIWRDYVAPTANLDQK
The assay can be described thus: FRET or BRET.

In assay [1] the target is T2, purified SND1 (16-339aa) protein (UniProt Q7KZF4 16-339).
T2 sequence: T1 sequence
The assay can be described thus: MST.

Take PNSDWNAPAEEWGNW [wild type MTDH (MTDH-WT) minimal peptide]: the binding result (in the assay with TC-SND1 (16-339aa); in assay [1]) was “binds” throughout. For SSADPNSDWNAPAEEWGNWVDE (domain or fragment) [CFP-MTDH (386-407aa)], the binding result with TC-SND1 (16-339aa) is “binds”.
